The supplement of paper PMC9233669
Variants at the floor of the assay were thinned out.

Legend:
biotinyl-Phe-oxazolone = assay: self-aminoacylation, catalytic enhancement (BFO) (fold over background); higher = more active; k-Seq, kA / k0A0; sequences stand for … in GGGAAUGGAUCCACAUCUACGAAUUC…UUCACUGCAGACUUGACGAAGCUG
Summary of the method: (§1)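 The uncatalyzed rate is the low-activity peak of a bimodal Gaussian fit, and catalytic enhancement is median kA divided by it. The kA values came from pseudo-first-order fits, with 1000 bootstraps, of per-sequence fraction reacted measured by streptavidin capture, triplicate qPCR and Illumina sequencing. Mutagenized RNA pools with a 21-nt variable region (0.43 μM) were reacted with each biotinyl-aminoacyl-oxazolone at 2–1250 μM in 50 μL HEPES/NaCl/KCl/MgCl2/CaCl2 buffer with 5% acetonitrile, pH 6.9–7.0, for 90 minutes at room temperature.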

biotinyl-Ile-oxazolone = assay: self-aminoacylation, catalytic enhancement (BIO) (fold over background); higher = more active; k-Seq, kA / k0A0; sequences stand for … in GGGAAUGGAUCCACAUCUACGAAUUC…UUCACUGCAGACUUGACGAAGCUG
Summary of the method: as §1

biotinyl-Met-oxazolone = assay: self-aminoacylation, catalytic enhancement (BMO) (fold over background); higher = more active; k-Seq, kA / k0A0; sequences stand for … in GGGAAUGGAUCCACAUCUACGAAUUC…UUCACUGCAGACUUGACGAAGCUG
Summary of the method: as §1

biotinyl-Val-oxazolone = assay: self-aminoacylation, catalytic enhancement (BVO) (fold over background); higher = more active; k-Seq, kA / k0A0; sequences stand for … in GGGAAUGGAUCCACAUCUACGAAUUC…UUCACUGCAGACUUGACGAAGCUG
Summary of the method: as §1

biotinyl-Leu-oxazolone = assay: self-aminoacylation, catalytic enhancement (BLO) (fold over background); higher = more active; k-Seq, kA / k0A0; sequences stand for … in GGGAAUGGAUCCACAUCUACGAAUUC…UUCACUGCAGACUUGACGAAGCUG
Summary of the method: as §1

biotinyl-Trp-oxazolone = assay: self-aminoacylation, catalytic enhancement (BWO) (fold over background); higher = more active; k-Seq, kA / k0A0; sequences stand for … in GGGAAUGGAUCCACAUCUACGAAUUC…UUCACUGCAGACUUGACGAAGCUG
Summary of the method: as §1

Sequence	self-aminoacylation (biotinyl-Phe-oxazolone)	self-aminoacylation (biotinyl-Ile-oxazolone)	self-aminoacylation (biotinyl-Met-oxazolone)	self-aminoacylation (biotinyl-Val-oxazolone)	self-aminoacylation (biotinyl-Leu-oxazolone)	self-aminoacylation (biotinyl-Trp-oxazolone)
AUUACUCUGCUCAUCGAGUGA [Fam2.1 aminoacylation ribozyme variant]	2.12	1.29	1.58	1.3	1.57	1.92
AUUACUCUGGACAUCGAGUGA [Fam2.1 aminoacylation ribozyme variant]	30.9	2.93	5.55	2.83	6.1	8.33
AUUACUCUGGUCACCGAGUGA [Fam2.1 aminoacylation ribozyme variant]	44.4	3.28	7.28	3.27	8.45	9.08
AUUACUCUGGUCAUCGAGUAA [Fam2.1 aminoacylation ribozyme variant]	1.42	2.21	2.23	1.79	1.92	2.27
AUUACUCUGGUCAUCUAGUGA [Fam2.1 aminoacylation ribozyme variant]	42.8	4.55	9.64	4.34	9.74	11.4
AUUACUCUGGUCGUCGAGUGA [Fam2.1 aminoacylation ribozyme variant]	0.488	1.08	1.16	1.16	1.31	0.657
AUUACUCUGGUGAUCGAGUGA [Fam2.1 aminoacylation ribozyme variant]	21.8	2.92	5.34	2.57	5.72	6.39
AUUACUCUGUUCAUCGAGUGA [Fam2.1 aminoacylation ribozyme variant]	3.86	1.9	2.88	1.94	3.42	3.94
AUUACUCUUGUCAUCGAGUGA [Fam2.1 aminoacylation ribozyme variant]	22	3.58	6.03	3.45	6.33	7.7
AUUAGCCUAGUCAUCGAGUGA [Fam2.1 aminoacylation ribozyme variant]	4.14	2.47	2.65	2.18	2.79	3.09
AUUAGCCUGGACAUCGAGUGA [Fam2.1 aminoacylation ribozyme variant]	45.3	3.91	8.78	3.53	9.56	8.52
AUUAGCCUGGUCAUCGAGCGA [Fam2.1 aminoacylation ribozyme variant]	2.04	2.55	2.52	2.53	2.59	4.5
AUUAGCCUGGUCAUCGCGUGA [Fam2.1 aminoacylation ribozyme variant]	165	10.3	21.7	11.2	22.3	22.6
AUUAGCCUGGUCAUCUAGUGA [Fam2.1 aminoacylation ribozyme variant]	19.2	3.39	4.79	2.98	5.06	6.32
AUUAGCCUGGUCAUGGAGUGA [Fam2.1 aminoacylation ribozyme variant]	17.2	2.77	4.09	2.72	4.02	4.92
AUUAGCCUGUUCAUCGAGUGA [Fam2.1 aminoacylation ribozyme variant]	18	3.04	5.64	3.27	5.5	7.22
AUUAGUCUGGUCAUCGAGUGA [Fam2.1 aminoacylation ribozyme variant]	13	3.35	3.43	2.62	4.42	3.94
AUUAUCCCGGUCAUCGAGUGA [Fam2.1 aminoacylation ribozyme variant]	61.2	4.32	8.46	4.35	10.6	11
AUUAUCCUAGUCAUCGAGUGA [Fam2.1 aminoacylation ribozyme variant]	26.4	3.35	5.97	3.15	6.53	8.1
AUUAUCCUGAUCAUCGAGUGA [Fam2.1 aminoacylation ribozyme variant]	60	4.92	11.1	4.92	11.4	11.8
AUUAUCCUGGUCAUAGAGUGA [Fam2.1 aminoacylation ribozyme variant]	59	4.58	9.86	4.11	10.1	11.7
AUUAUCCUGGUCAUCGAGAGA [Fam2.1 aminoacylation ribozyme variant]	1.15	1.08	0.869	0.989	0.847	0.862
AUUAUCCUGGUCAUCGUGUGA [Fam2.1 aminoacylation ribozyme variant]	28.6	2.15	3.54	2.05	3.83	5.91
AUUAUCCUGUUCAUCGAGUGA [Fam2.1 aminoacylation ribozyme variant]	22.6	2.87	5.98	3	6	7.47
AUUAUCCUUGUCAUCGAGUGA [Fam2.1 aminoacylation ribozyme variant]	25.2	3.49	6.66	3.57	6.7	8.67
